The supplement of paper PMC9732359
± gives the uncertainty stated by the source.

Test: protein stability index of a GFP-peptide fusion (yeast GPS) (PSI 1-4); higher = more stable; sorted into four equal gates, so the index is relative within each strain
Summary of the method: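 The protein stability index combines read frequencies across sorting gates, each weighted by its gate number and then summed. To obtain those frequencies, a pooled yeast library of GFP fusions to tiled 17-residue yeast protein peptides, on a plasmid also expressing Cherry, was grown to mid-log phase in leucine-free medium. The cells were sorted into four equal gates by GFP/Cherry ratio before plasmid amplification by PCR and Illumina sequencing.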

Row | Sequence | protein stability index (doa10∆) | protein stability index (pdr5∆) | protein stability index (san1∆) | protein stability index (ubr1∆)
1 | LFGENDTSTQAYEEEEE [NUT1] | 3.34 ± 0.09 | 3.41 ± 0.095 | 3.5 ± 0.057 | 3.34 ± 0.075
2 | RNNVANKQPRNESFNRR [YAR002W/NUP60] | 3.04 ± 0.088 | 3.41 ± 0.18 | 2.31 ± 0.12 | 3.24 ± 0.14
3 | ELQEKNVELLNCIRILA [YIL149C/MLP2] | 2.19 ± 0.054 | 1.95 ± 0.065 | 1.73 ± 0.085 | 1.68 ± 0.039
4 | TSQYGTPSTETAASVFK [PRE3] | 1.71 ± 0.046 | 2.29 ± 0.042 | 2.1 ± 0.047 | 2.27 ± 0.045
5 | DQAIVTETKRLVVIRFG [DIB1] | 2 ± 0.071 | 2.23 ± 0.062 | 2.03 ± 0.1 | 2.45 ± 0.067
6 | STLHMLGYTHIAINFTV [RPP1] | 1.5 ± 0.041 | 1.39 ± 0.037 | 1.45 ± 0.067 | 1.55 ± 0.041
7 | SQLQEQFNKILPEPTEG [FAS1] | 2.82 ± 0.1 | 3.17 ± 0.12 | 2.64 ± 0.076 | 2.71 ± 0.097
8 | LYEKDIVPSMTHLEIEP [RET1] | 2.68 ± 0.098 | 2.65 ± 0.089 | 2.73 ± 0.09 | 2.85 ± 0.053
9 | RVKVHFDQAGKKVSRRN [RPL13A] | 3.46 ± 0.12 | 3.37 ± 0.1 | 3.26 ± 0.12 | 3.31 ± 0.079
10 | NDRESVLTNIEVYRTSL [SMC3] | 2.94 ± 0.13 | 3.21 ± 0.15 | 3.05 ± 0.12 | 2.97 ± 0.081
11 | LKLENLHVVSKSSIEKD [SIN4] | 3.13 ± 0.094 | 2.74 ± 0.11 | 3.14 ± 0.1 | 3.12 ± 0.068
12 | PTVHNSTAAAPIAAPKK [PGD1] | 2.81 ± 0.065 | 3.08 ± 0.071 | 2.83 ± 0.052 | 3.072 ± 0.029
13 | LVVRFTNKDIICQIISS [RPL5] | 1.62 ± 0.055 | 1.79 ± 0.062 | 1.25 ± 0.18 | 1.67 ± 0.051
14 | STKKKILGIHTSKMNLS [RPT2] | 3.47 ± 0.13 | 3.21 ± 0.096 | 3.42 ± 0.071 | 3.05 ± 0.073
15 | IRKGANDGEVYQKIFKP [PRE9] | 2.06 ± 0.098 | 1.81 ± 0.068 | – | 1.83 ± 0.059
16 | HNMKAYYKKFLIEPLPT [BRR2] | 1.26 ± 0.055 | 1.58 ± 0.07 | 1.18 ± 0.16 | 1.44 ± 0.084
17 | SLDTSASTINGASIIQV [YML103C/NUP188] | 1.19 ± 0.081 | 1.44 ± 0.086 | 1.29 ± 0.12 | 1.14 ± 0.093
18 | MTTFRFCRDCNNMLYPR [RPB9] | 2.78 ± 0.14 | 3.14 ± 0.11 | 3.41 ± 0.14 | 2.99 ± 0.068
19 | QRCKSNAISLQLKYDTS [YIL149C/MLP2] | 1.78 ± 0.062 | 1.66 ± 0.054 | 1.86 ± 0.12 | 1.79 ± 0.047
20 | LKEVPTYRYVSVSVLVD [RPS25A] | 2.64 ± 0.079 | 2.13 ± 0.069 | 1.33 ± 0.1 | 1.66 ± 0.038
21 | GLHKFVKGDLLQEAIDF [PRE10] | 2.93 ± 0.1 | 2.83 ± 0.079 | 3.09 ± 0.082 | 2.99 ± 0.053
22 | IVFHNEFSEHTFVERLP [DIS3] | 2.43 ± 0.05 | 2.28 ± 0.063 | 2.64 ± 0.058 | 2.68 ± 0.053
23 | GPAAAIEFEYDPWNKLK [RPB3] | 3.04 ± 0.081 | 3.08 ± 0.078 | 3.05 ± 0.052 | 3.25 ± 0.065
24 | TVNEPQMSDKHATVVPP [SRB7] | 2.73 ± 0.12 | 2.83 ± 0.11 | 2.89 ± 0.093 | 3.07 ± 0.092
25 | RITNSFYSTNSQYFKFK [RPN9] | 2.5 ± 0.1 | 2.38 ± 0.076 | 2.42 ± 0.086 | 2.83 ± 0.16
26 | GSMTKTWYVGNSRGKFD [SSN2] | 3.74 ± 0.26 | – | 3.08 ± 0.24 | –
27 | SHIESDSTSHNNGSSDK [MED1] | 2.89 ± 0.042 | 2.94 ± 0.038 | 2.84 ± 0.042 | 3.01 ± 0.032

Row | Sequence | protein stability index (doa10∆) | protein stability index (pdr5∆) | protein stability index (san1∆) | protein stability index (ubr1∆)
28 | CPYCYKKRREYFPEGYN [SIR2] | 2.43 ± 0.11 | 2.41 ± 0.16 | 2.61 ± 0.2 | 2.75 ± 0.069
29 | KISLLRPSFQNNRISNA [SWP82] | 2.46 ± 0.042 | 2.37 ± 0.046 | 2.23 ± 0.078 | 2.27 ± 0.041
30 | ILRDYGPQEAANAMNRM [RPO31] | – | 1.83 ± 0.26 | 2.86 ± 0.22 | –
31 | DIETQLCSMLQEASQVT [MED11] | 2.73 ± 0.1 | 2.73 ± 0.11 | 2.32 ± 0.11 | 2.44 ± 0.074
32 | FSKGDADVLVDRVVSSD [SRP72] | 3.28 ± 0.091 | 3.2 ± 0.098 | 3.02 ± 0.098 | 3.04 ± 0.081
33 | LMETLRTLRRKGDINPE [RPB2] | 3.08 ± 0.1 | 3.37 ± 0.079 | 2.85 ± 0.088 | 3.16 ± 0.069
34 | KVDNDLRIELQSVYNDE [SRB8] | 3.16 ± 0.22 | 3.29 ± 0.24 | 3.26 ± 0.12 | –
35 | LENFKSYAGKQVVGPFH [SMC4] | 3.04 ± 0.076 | 3.2 ± 0.19 | 2.98 ± 0.11 | 2.98 ± 0.1
36 | VVDGTVVSCSQHGFEVQ [RPB7] | 3.08 ± 0.071 | 3.11 ± 0.058 | 3.13 ± 0.068 | 3.28 ± 0.07
37 | QVLKCKESWDPNTTKTK [YGR119C/NUP57] | 3.52 ± 0.21 | 3.41 ± 0.076 | 3.63 ± 0.089 | 3.55 ± 0.15
38 | FKGHSHIVQDCTLTADG [ASC1] | 1.67 ± 0.066 | 2.04 ± 0.087 | 2.06 ± 0.16 | 1.55 ± 0.065
39 | VVDHHVENELLQVDVDI [RRP42] | 3.4 ± 0.13 | 3.25 ± 0.21 | 2.83 ± 0.17 | –
40 | KDEYLAQLDGRIGVLQA [NSL1] | 2.08 ± 0.064 | 2.4 ± 0.046 | 2.41 ± 0.074 | 2.99 ± 0.046
41 | KHGAVHMSTYLKIYKVG [RPL21B] | 1.65 ± 0.042 | 1.52 ± 0.043 | 1.9 ± 0.062 | 1.74 ± 0.054
42 | PSTTLFNFGGKSDTVTS [YOR098C/NUP1] | 2.51 ± 0.065 | 2.32 ± 0.075 | 2.4 ± 0.073 | 2.92 ± 0.059
43 | IESIVNLAPKLRNVFLG [GRR1] | 1.94 ± 0.13 | 1.41 ± 0.085 | 1.26 ± 0.14 | 1.42 ± 0.064
44 | HGTYFLDNMTYSSVAGT [RRP4] | 2.21 ± 0.051 | 2.3 ± 0.043 | 2.45 ± 0.062 | 1.72 ± 0.034
45 | TVSPDFVAATTNAGYTI [FAS1] | 2.71 ± 0.065 | 2.71 ± 0.053 | 2.32 ± 0.12 | 2.56 ± 0.058
46 | GLVNHRVGVKLKFNSTE [SMX3] | 2.48 ± 0.052 | 2.24 ± 0.04 | 1.94 ± 0.056 | 1.48 ± 0.036
47 | GARPGRVARRNAARKAE [RPS9A] | 3.3 ± 0.13 | 3.45 ± 0.17 | – | 3 ± 0.098
48 | RLQAANSMEYTGKITKM [CDC53] | 2.99 ± 0.12 | 2.62 ± 0.14 | 2.52 ± 0.094 | 2.73 ± 0.064
49 | AKKRRPAAKGKNLSFKR [RRP6] | 2.9 ± 0.12 | 2.92 ± 0.09 | 2.67 ± 0.095 | 2.81 ± 0.085
50 | SEYNFLEGSVSLPRFSK [DIS3] | 3.1 ± 0.078 | 3.18 ± 0.068 | 3.11 ± 0.05 | 3.2 ± 0.05
51 | DDKDCTIKISTNDDSIK [RGR1] | 2.89 ± 0.068 | 3.15 ± 0.067 | 2.98 ± 0.052 | 2.96 ± 0.057
52 | AENSHTQPKATSTGTTI [PUP1] | 3.17 ± 0.073 | 3.1 ± 0.071 | 3.07 ± 0.06 | 3.26 ± 0.057
53 | QHDKMVDKIFEKVNNNA [SWI1] | 3.19 ± 0.15 | 2.73 ± 0.081 | 2.87 ± 0.067 | 2.99 ± 0.041
